Assays:
[1] = target: T1, recombinant type-2 Shiga toxin (Stx2) holotoxin (E. coli EHEC O157: H7), P09385
T1 chain 1: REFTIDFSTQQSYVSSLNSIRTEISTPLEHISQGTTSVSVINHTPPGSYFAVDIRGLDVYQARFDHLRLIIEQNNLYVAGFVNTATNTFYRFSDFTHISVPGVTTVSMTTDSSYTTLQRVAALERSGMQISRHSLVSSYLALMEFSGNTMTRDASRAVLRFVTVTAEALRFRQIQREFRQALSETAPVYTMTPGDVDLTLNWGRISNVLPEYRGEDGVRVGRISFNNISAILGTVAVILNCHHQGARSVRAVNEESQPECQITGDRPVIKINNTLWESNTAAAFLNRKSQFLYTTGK
T1 chain 2: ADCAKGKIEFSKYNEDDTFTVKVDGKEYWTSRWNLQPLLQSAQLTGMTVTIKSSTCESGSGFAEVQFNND

[2] = target: T2, recombinant Stx2B (B subunit of type-2 Shiga toxin) (E. coli EHEC O157: H7), P09386
T2 chain: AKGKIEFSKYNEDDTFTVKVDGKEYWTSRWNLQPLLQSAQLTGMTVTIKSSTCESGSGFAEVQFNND

Binder	Kd [1]	blocking rate of binding between FITC-Stx2B and HeLa cells [2]	percent of HeLa cells showing fluorescence [2]	percent of binding between FITC-Stx2B and HeLa cells blocked [2]
WAPWYSFTSYHL (modifications not checked) [polypeptide WA8]	24.8 µM	24.8%	–	–
TFNMWLPTFNQW (modifications not checked) [polypeptide TF1]	1.25 µM	–	52.8%	45.7%

— patent US8946384
